Test results: ChEMBL document CHEMBL3864159, “Variation of the aryl substituent on the piperazine ring within the 4-(piperazin-1-yl)-2,6-di(pyrrolidin-1-yl)pyrimidine scaffold unveils potent, non-competitive inhibitors of the inflammatory caspases” (Bioorg Med Chem Lett, 2016)

Assays:
[1] = compound: c1ccc(CCN2CCN(c3cc(N4CCCC4)nc(N4CCCC4)n3)CC2)cc1; experiment: (§1) Non-competitive inhibition of human recombinant N-terminal His-tagged DTT-activated caspase-1 expressed in Escherichia coli assessed as enzyme Km at 500 nM using Ac-WEHD-AMC as substrate preincubated for 30 mins followed by substrate addition by Michaelis-Menten plot analysis (reference value: 8.18 +/- 2.9 uM)
[2] = compound: c1ccc(CCN2CCN(c3cc(N4CCCC4)nc(N4CCCC4)n3)CC2)cc1; experiment: as §1, with “Vmax” for “Km”, “50” for “500”, “13162” for “8.18”, “1446 RFU/min)” for “2.9 uM)”
[3] = compound: c1ccc(CCN2CCN(c3cc(N4CCCC4)nc(N4CCCC4)n3)CC2)cc1; experiment: as §1, with “Vmax” for “Km”, “13162” for “8.18”, “1446 RFU/min)” for “2.9 uM)”
[4] = compound: c1ccc(CCN2CCN(c3cc(N4CCCC4)nc(N4CCCC4)n3)CC2)cc1; experiment: as §1, with “50” for “500”

B1: Caspase-1 (Homo sapiens), P29466 (protein)
chain: MADKVLKEKRKLFIRSMGEGTINGLLDELLQTRVLNKEEMEKVKRENATVMDKTRALIDSVIPKGAQACQICITYICEEDSYLAGTLGLSADQTSGNYLNMQDSQGVLSSFPAPQAVQDNPAMPTSSGSEGNVKLCSLEEAQRIWKQKSAEIYPIMDKSSRTRLALIICNEEFDSIPRRTGAEVDITGMTMLLQNLGYSVDVKKNLTASDMTTELEAFAHRPEHKTSDSTFLVFMSHGIREGICGKKHSEQVPDILQLNAIFNMLNTKNCPSLKDKPKVIIIQACRGDSPGVVWFKDSVGVSGNLSLPTTEEFEDDAIKKAHIEKDFIAFCSSTPDNVSWRHPTMGSVFIGRLIEHMQEYACSCDVEEIFRKVRFSFEQPDGRAQMPTTERVTLTRCFYLFPGH
[1]
  Km: 5.75 µM
[2]
  Vmax: 4440 RFU/min
[3]
  Vmax: 2840 RFU/min
[4]
  Km: 5.76 µM
